In paper PMC10206775 one finds dye release from calcein liposomes (fluorescence and Kd data, which are given here for two substances.

The target in assay [1] is BmTFF3 (β-subunit of βγ-CAT) (Bombina maxima (endogenous in skin secretions)).
The target in assay [2] is Bombina maxima IgG Fc-binding protein (FCGBP) (Bombina maxima (endogenous in skin secretions)). The experiment in a line: BLI; FCGBP (10 μg/ml, 0.01 M sodium acetate pH 4.0) amine-coupled to AR2G biosensors; βγ-CAT 1000-31.25 nM in PBS, association 300 s, dissociation 180 s; global fit, 1:1 binding model. For orientation: In BLI a coated tip is dipped into the sample, and binding shifts an interference pattern.

Consider “BmALP1 (α-subunit of βγ-CAT) (natural protein)”, for which, in assay [1], the dye release from calcein liposomes (fluorescence at 518 nm, % of maximum) by BmALP1 polymer (50 nM) with BmTFF3 (200 nM) and FCGBP at 25, 50 and 150 nM was 76.8%.
A word on the Kd: it is the equilibrium constant for the complex coming apart. A low value points to higher affinity. In turn, βγ-CAT complex (BmALP1 and BmTFF3) yielded a Kd in assay [2] of 21.2 nM.
